In paper PMC12623541:

Target: androgen receptor (AR) (human (endogenous in LNCaP and C4-2)) (UniProt P10275)
Assay: co-IP; lysates (RIPA buffer) of LNCaP and C4-2 cells transfected with siNC or siKMT2D; immunoprecipitation with primary antibody and Protein A/G agarose at 4 °C, western blot for AR and E3 ubiquitin ligases; which protein was precipitated is not stated for this panel

Chain of UniProt P10275 (P10275 whole entry): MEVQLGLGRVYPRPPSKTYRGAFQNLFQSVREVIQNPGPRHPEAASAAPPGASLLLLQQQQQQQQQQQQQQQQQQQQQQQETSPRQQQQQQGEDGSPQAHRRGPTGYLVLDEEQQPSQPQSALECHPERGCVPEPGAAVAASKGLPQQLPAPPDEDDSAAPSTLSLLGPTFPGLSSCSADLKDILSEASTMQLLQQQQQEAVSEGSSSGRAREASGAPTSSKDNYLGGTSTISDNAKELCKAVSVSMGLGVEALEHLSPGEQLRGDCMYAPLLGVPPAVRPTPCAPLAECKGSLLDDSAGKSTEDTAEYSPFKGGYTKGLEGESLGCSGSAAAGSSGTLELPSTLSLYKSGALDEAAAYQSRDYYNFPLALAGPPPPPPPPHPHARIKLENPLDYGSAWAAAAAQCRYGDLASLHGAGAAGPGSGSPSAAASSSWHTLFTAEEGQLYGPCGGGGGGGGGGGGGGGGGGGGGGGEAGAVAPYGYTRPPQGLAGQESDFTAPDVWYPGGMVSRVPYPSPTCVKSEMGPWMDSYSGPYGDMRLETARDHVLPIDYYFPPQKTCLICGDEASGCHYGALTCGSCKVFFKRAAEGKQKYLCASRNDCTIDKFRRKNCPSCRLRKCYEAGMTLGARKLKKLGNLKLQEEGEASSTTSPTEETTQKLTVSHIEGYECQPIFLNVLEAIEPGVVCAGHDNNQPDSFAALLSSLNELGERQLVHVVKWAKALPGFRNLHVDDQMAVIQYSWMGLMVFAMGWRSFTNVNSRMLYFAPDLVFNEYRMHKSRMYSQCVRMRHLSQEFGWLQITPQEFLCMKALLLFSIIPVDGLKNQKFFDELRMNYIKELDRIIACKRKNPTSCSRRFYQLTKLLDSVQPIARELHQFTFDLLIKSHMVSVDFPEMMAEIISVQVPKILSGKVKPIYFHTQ

fold change of SPOP bound to AR after KMT2D knockdown against control (C4-2 cells): 1.57 fold
fold change of SPOP bound to AR after KMT2D knockdown against control (LNCaP cells): 1.41 fold
Substance: Speckle Type BTB/POZ protein (SPOP) (from UniProt O43791 1-374) (natural protein)
